Reference: patent US12391751B2, “Antibody against advanced glycation end products and use thereof” (Bloom Technology Corporation, priority 2018, dated 2025)

Columns and labels:
Assay type in all cases: binding
GAL13-BSA [1] = biological target: T1, GAL13-BSA (Bos taurus, UniProt P02769); assay: Dissociation constant measurement, Biacore T200 (Example 8); details: Biacore T200, sensor chip CM5; ligand GAL13-BSA
T1 construct: purchased Sigma-Aldrich Co. LLC
Procedure: (§1) The dissociation constant (Kd value) of the monoclonal antibody SJ-5 was measured by the following approach: BSA containing AGEs derived from glyceraldehyde (Glycer-AGEs-BSA) was diluted with a 10 mM sodium acetate solution (pH 4.0) to prepare a ligand solution with a final concentration of 100 μg/mL. Biacore T200 (GE Healthcare Japan Corp.) was used for the immobilization of the ligand and the calculation of the KD value. The ligand solution was immobilized onto sensor chip CM5 (GE Healthcare Japan Corp.) using an amine coupling kit (GE Healthcare Japan Corp.). Subsequently, antibody dilution solutions containing the monoclonal antibody diluted into concentrations from 0 to 400 nM were prepared, and the Kd value was calculated.
BSA chemically bonded to the peak obtained in fractionation by HPLC (GAL13-BSA) was diluted with a 10 mM sodium acetate solution (pH 5.0) to prepare a ligand solution with a final concentration of 25 μg/mL.

[2] = Reactivity of SJ-5 with GLAP by competitive ELISA (Example 13); details: immobilized Glycer-AGEs-BSA
Procedure: A solution of BSA containing AGEs derived from glyceraldehyde (stock solution: 10 mg/mL PBS solution) prepared into 1 μg/mL in a coating solution was added at 100 μL/well to a 96-well microtiter plate (COSTAR) and incubated overnight at 4° C.
Each well after the immobilization treatment was washed three times with a washing solution (300 μL), and a blocking solution (200 μL) was added thereto and left at room temperature for 1 hour.
GAL13 (prepared in Example 2), GLAP (prepared in Example 12), and Z-Lys-OH (Tokyo Chemical Industry Co., Ltd.) were each dissolved in a phosphate buffer solution (0.2 M, pH 7.4) to prepare a 20 mg/mL solution. Sample solutions of 2-fold dilution series from 0.0063 to 2 mg/mL (6 points) were further prepared by dilution with a diluting solution. A POD-labeled novel monoclonal antibody (SJ-5) solution was diluted 16,000-fold with a diluting solution containing BSA (1 mg/mL, FUJIFILM Wako Pure Chemical Corp.) to prepare a POD-labeled SJ-5 antibody dilution solution. […]
Absorbance was measured at a dominant wavelength of 450 nm and a sub-wavelength of 650 nm with a microplate reader (Cytation 5, BioTek Instrument Inc.), and the absorbance at the sub-wavelength was subtracted from the absorbance at the dominant wavelength.

Glycer-AGEs-BSA = Glycer-AGEs-BSA (Bos taurus, UniProt P02769); assay: Dissociation constant measurement, Biacore T200 (Example 8); details: Biacore T200, sensor chip CM5; ligand Glycer-AGEs-BSA; antibody 0 to 400 nM
Procedure: as §1

GAL13-BSA [3] = biological target: T1, GAL13-BSA; assay: Reactivity of novel monoclonal antibody by competitive ELISA (Example 6)
Procedure: GAL13-BSA was added at 100 μL/well with a concentration of 1 μg/mL and immobilized overnight at 4° C. The plate was washed three times with PBS containing 0.05% (v/v) Tween 20 (PBS-T) and then blocked with a carbonate buffer solution (pH 9.5) containing 0.5% (w/v) gelatin for 1 hour. After preparation of a POD-labeled SJ-5 antibody (0.4 μg/mL) and an anti-glyceraldehyde-derived AGEs polyclonal antibody (6 μg/mL) as a control, 10-fold serial dilution solutions (50 μL each) of GAL13-BSA or control BSA and the POD-labeled SJ-5 antibody or the anti-glyceraldehyde-derived AGEs polyclonal antibody as a control (50 μL) were added to the antigen-immobilized plate, stirred with a plate mixer, and then left standing at room temperature for 1 hour. After washing, an o-phenylenediamine solution (100 μL) prepared into 0.5 mg/mL with a 0.1 M citrate-phosphate buffer solution (pH 5.0) containing 0.02% (w/v) hydrogen peroxide was added to each well and left standing at 25° C. for 10 minutes. Then, color reaction was terminated by the addition of a 1 M sulfuric acid solution (50 μL) to each well. Then, absorbance at 490 nm was measured with a microplate reader.

T1 sequence (P02769 25-607): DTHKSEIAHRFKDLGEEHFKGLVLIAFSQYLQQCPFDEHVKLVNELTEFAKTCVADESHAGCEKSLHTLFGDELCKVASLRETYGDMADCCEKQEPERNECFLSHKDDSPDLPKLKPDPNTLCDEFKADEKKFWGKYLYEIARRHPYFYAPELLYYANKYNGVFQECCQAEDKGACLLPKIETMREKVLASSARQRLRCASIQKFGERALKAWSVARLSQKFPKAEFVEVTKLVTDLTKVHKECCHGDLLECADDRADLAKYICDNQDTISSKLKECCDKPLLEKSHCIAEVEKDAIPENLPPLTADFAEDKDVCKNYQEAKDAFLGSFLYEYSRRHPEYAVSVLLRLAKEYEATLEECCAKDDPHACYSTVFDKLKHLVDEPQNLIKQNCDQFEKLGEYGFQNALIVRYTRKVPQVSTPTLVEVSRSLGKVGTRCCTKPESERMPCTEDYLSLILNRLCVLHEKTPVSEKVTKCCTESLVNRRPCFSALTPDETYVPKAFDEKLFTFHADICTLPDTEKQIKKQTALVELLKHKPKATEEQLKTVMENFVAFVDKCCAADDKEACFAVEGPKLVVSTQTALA
Sequence of Glycer-AGEs-BSA (P02769 25-607): as above

B1: SJ-5: mouse monoclonal antibody raised against GAL13-MSA; heavy-chain variable region SEQ ID NO 4, light-chain variable region SEQ ID NO 8 (antibody, listed as Mus musculus, V domains shown)
VH: EVMLVESGGRLVKPGGSLKLSCAASGFTFSSYGMSWVRQTPEKRLEWVATISGGGSYTYYPDSVKGRFTISRDNVKNNLYLQMSSLRSEDTALYYCARRGAYGDYGWFAYWGQGTLVTVSA
VL: DIVLTQSPATLSVTPGDSVSLSCRASQSINNNLHWYQQKSHESPRLLIKCASQSISGIPSRFSGSGSGTDFTLSINSVETEDFGMYFCQQSNSWPLTFGAGTKLELK
Kd (GAL13-BSA [1]): 87.5 nM | recognition of GLAP [2]: does not recognize | Kd (Glycer-AGEs-BSA): 57.4 nM | antibody concentration giving similar results, lower than that of the polyclonal antibody (GAL13-BSA [3]; competitive ELISA, versus anti-glyceraldehyde-derived AGEs polyclonal antibody): 15 times | reactivity with GAL13-BSA in the competitive method (GAL13-BSA [3]; immobilized GAL13-BSA, POD-labeled SJ-5 0.4 μg/mL, polyclonal antibody 6 μg/mL): react favorably
